This note sets out measurements from US20130164299A1.

Assay [1] addresses CD20 on C1R and C1R-LLT1 cells (UniProt P11836). Nature of the assay: cell-based or functional assay.
The target of another assay is CD161, on cells (UniProt Q12918). Briefly: cell-based or functional assay.
Assay [2] deals with CLEC2D iso2-Fc. Briefly: ELISA, coated CLEC2D iso2-Fc, direct detection of the Fc portion.
Assay [3] concerns the target CLEC2D iso4-Fc. Briefly: ELISA, coated CLEC2D iso4-Fc, direct detection of the Fc portion.
For assay [4], the target named is CLEC2A-Fc protein (UniProt Q6UVW9). Nature of the assay: ELISA, coated CLEC2A-Fc, direct detection of the Fc portion.
Chain of CLEC2A-Fc protein (Q6UVW9 49-174): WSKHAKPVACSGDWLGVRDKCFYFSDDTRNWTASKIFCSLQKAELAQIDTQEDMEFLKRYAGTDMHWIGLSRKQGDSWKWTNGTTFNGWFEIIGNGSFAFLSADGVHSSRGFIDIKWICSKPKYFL
Assay [5] concerns the target LLT1-Fc fusion protein (human) (UniProt Q9UHP7). Nature of the assay: ELISA, coated LLT1-Fc, direct detection of the Fc portion.
Assay [6] addresses CLEC2A-Fc protein (UniProt Q6UVW9). Nature of the assay: ELISA, coated CLEC2A-Fc, anti-mIg-HRP detection.
The target of assay [7] is LLT1-Fc fusion protein (human) (UniProt Q9UHP7). Briefly: ELISA, coated LLT1-Fc, anti-mIg-HRP detection.
Chain of LLT1-Fc fusion protein (human) (Q9UHP7 60-191 limits assumed): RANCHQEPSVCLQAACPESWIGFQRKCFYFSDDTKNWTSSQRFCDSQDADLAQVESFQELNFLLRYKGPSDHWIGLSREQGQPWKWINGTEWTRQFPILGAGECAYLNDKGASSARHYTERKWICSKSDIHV
In assay [8] the target is CLEC2D iso2-Fc. Nature of the assay: ELISA, coated CLEC2D iso2-Fc, anti-mIg-HRP detection.
Assay [9] deals with CLEC2D iso4-Fc. Nature of the assay: ELISA, coated CLEC2D iso4-Fc, anti-mIg-HRP detection.
Assay [10] concerns the target lectin-like transcript 1 (LLT1), recombinantly expressed on cells (human) (UniProt Q9UHP7). Briefly: cell-based or functional assay.

Chain of lectin-like transcript 1 (LLT1), recombinantly expressed on cells (human) (Q9UHP7 whole entry): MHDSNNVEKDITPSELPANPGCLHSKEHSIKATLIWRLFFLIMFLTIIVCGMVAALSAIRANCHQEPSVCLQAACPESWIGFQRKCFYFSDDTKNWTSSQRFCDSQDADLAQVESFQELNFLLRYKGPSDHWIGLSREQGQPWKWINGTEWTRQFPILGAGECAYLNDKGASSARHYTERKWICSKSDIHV
Chain of CD20 on C1R and C1R-LLT1 cells (P11836 whole entry): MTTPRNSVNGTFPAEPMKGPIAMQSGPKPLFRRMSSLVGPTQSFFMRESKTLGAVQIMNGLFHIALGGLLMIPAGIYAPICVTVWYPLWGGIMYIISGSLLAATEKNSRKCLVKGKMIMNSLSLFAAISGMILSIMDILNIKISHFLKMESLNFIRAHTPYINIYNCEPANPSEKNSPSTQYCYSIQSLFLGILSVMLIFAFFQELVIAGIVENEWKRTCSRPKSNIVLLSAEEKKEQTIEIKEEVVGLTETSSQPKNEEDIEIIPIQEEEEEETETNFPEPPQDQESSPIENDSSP

As to anti-CD20 (rituximab) (antibody), the ADCC: specific lysis of C1R and C1R-LLT1 cells by NK cells (chromium release); antibody concentration giving lysis in assay [1] is more than 0.16 mg/mL.

For anti-CD161 mAb 191B8 (antibody), in the assay with CD161, on cells, the % CD107a+ NK cells (NK cells + C1R-LLT1) came to 13.2% and the % IFN-γ+ NK cells (NK cells + C1R-LLT1) was 7.4%.

In the case of HRP-conjugated anti-human Ig antibody, the OD amounted to 1.01 OD with CLEC2D iso2-Fc [2], 1.04 OD in the assay with CLEC2D iso4-Fc [3], 1.15 OD with CLEC2A-Fc protein [4] and 1.08 OD in [5].

For anti-CD161 mAb DX12 (antibody), in the assay with CD161, on cells, the % CD107a+ NK cells (NK cells + C1R-LLT1) is 8.1% and the % IFN-γ+ NK cells (NK cells + C1R-LLT1) is 5.4%.

Turning to MAB3480 (antibody), the OD with CLEC2A-Fc protein [6] is 0.104 OD; in [7], 1.21 OD; with CLEC2D iso2-Fc [8] it was 0.117 OD; with CLEC2D iso4-Fc [9] it was 0.112 OD. Moreover, in assay [10], the % CD107a+ NK cells (NK cells + C1R-LLT1) was 4.7%. The % IFN-γ+ NK cells (NK cells + C1R-LLT1) in assay [10] was determined as 3%.

For the substance AF3480 (antibody), in assay [10], the % CD107a+ NK cells (NK cells + C1R-LLT1) turned out to be 5.3% and the % IFN-γ+ NK cells (NK cells + C1R-LLT1) was determined as 3.3%.

Regarding anti-CD161 mAb HP3G10 (antibody), in the assay with CD161, on cells, the % CD107a+ NK cells (NK cells + C1R-LLT1) worked out at 9.5%; the % CD107a+ NK cells, Raji target cells (no mAb 10.3) turned out to be 13.1%; the % CD107a+ NK cells, Ramos target cells (no mAb 8.1) was found to be 10.9%; the % CD107a+ NK cells, SUDHL4 target cells (no mAb 11.6) stood at 17.5%. The % IFN-γ+ NK cells (NK cells + C1R-LLT1) with CD161, on cells was 5.3%.
